From publication PMC11067348

Molecular target: T1, pM-Gal4DBD-AR (amino acids 624-919), P10275
T1 chain: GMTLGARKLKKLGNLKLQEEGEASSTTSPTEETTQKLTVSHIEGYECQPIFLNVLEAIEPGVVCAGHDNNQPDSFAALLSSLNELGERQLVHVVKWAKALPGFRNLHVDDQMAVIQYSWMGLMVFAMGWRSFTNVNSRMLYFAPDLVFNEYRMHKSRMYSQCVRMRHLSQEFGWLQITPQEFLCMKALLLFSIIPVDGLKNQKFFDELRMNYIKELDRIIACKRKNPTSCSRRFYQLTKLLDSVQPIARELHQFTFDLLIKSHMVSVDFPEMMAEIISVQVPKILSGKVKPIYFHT
Assay: mammalian two-hybrid
Details: chain shown with the change, HEK293T cells, read off a plot

B1: pVP16-AR111Q (amino acids 12-660), P10275 F23A (protein)
chain: PRPPSKTYRGAAQNLFQSVREVIQNPGPRHPEAASAAPPGASLLLLQQQQQQQQQQQQQQQQQQQQQQQETSPRQQQQQQGEDGSPQAHRRGPTGYLVLDEEQQPSQPQSALECHPERGCVPEPGAAVAASKGLPQQLPAPPDEDDSAAPSTLSLLGPTFPGLSSCSADLKDILSEASTMQLLQQQQQEAVSEGSSSGRAREASGAPTSSKDNYLGGTSTISDNAKELCKAVSVSMGLGVEALEHLSPGEQLRGDCMYAPLLGVPPAVRPTPCAPLAECKGSLLDDSAGKSTEDTAEYSPFKGGYTKGLEGESLGCSGSAAAGSSGTLELPSTLSLYKSGALDEAAAYQSRDYYNFPLALAGPPPPPPPPHPHARIKLENPLDYGSAWAAAAAQCRYGDLASLHGAGAAGPGSGSPSAAASSSWHTLFTAEEGQLYGPCGGGGGGGGGGGGGGGGGGGGGGGEAGAVAPYGYTRPPQGLAGQESDFTAPDVWYPGGMVSRVPYPSPTCVKSEMGPWMDSYSGPYGDMRLETARDHVLPIDYYFPPQKTCLICGDEASGCHYGALTCGSCKVFFKRAAEGKQKYLCASRNDCTIDKFRRKNCPSCRLRKCYEAGMTLGARKLKKLGNLKLQEEGEASSTTSPTEETTQKL
For B1, which response (Relative Luciferase Units) (DHT treated, parent: est. 2.4) is on record?
The response (Relative Luciferase Units) was 0.35.

What about the other: Average Fold Change (DHT/EtOH treated) (DHT versus EtOH, parent: est. 2.2) of the same binder?
Its other: Average Fold Change (DHT/EtOH treated) is 0.9.
